# ± gives the uncertainty stated by the source.
# B1: Far upstream element-binding protein 3, residues 75 to 150; numbered along this chain, Q96I24 (parent)
# chain: RTVITEEFKVPDKMVGFIIGRGGEQISRIQAESGCKIQIASESSGIPERPCVLTGTPESIEQAKRLLGQIVDRCRN
# Variants of: B1
# Test: abundance fitness (aPCA) (normalised: wild type 0, dead -1); higher = more abundant; growth selection in yeast, the domain comes from the species named
# Details: Homo sapiens
row,Variant,abundance fitness
1,E48T,-0.109 ± 0.036
2,E48Y,-0.056 ± 0.057
3,E48S,-0.043 ± 0.033
4,R1F,-0.059 ± 0.087
5,R1G,-0.042 ± 0.027
6,R1W,-0.2 ± 0.037
7,R1M,0.029 ± 0.055
8,N76F,0.023 ± 0.1
9,N76R,0.055 ± 0.042
10,N76T,-0.057 ± 0.061
11,N76Y,-0.027 ± 0.095
12,N76C,-0.069 ± 0.06
13,N76Q,-0.145 ± 0.11
14,Q38C,-0.053 ± 0.048
15,Q38A,-0.038 ± 0.031
16,Q62N,-0.041 ± 0.038
17,Q62K,-0.019 ± 0.043
18,Q62D,-0.005 ± 0.04
19,Q62R,-0.043 ± 0.03
20,Q62F,-0.043 ± 0.038
21,M14D,-0.126 ± 0.059
22,M14N,-0.101 ± 0.073
23,M14W,-0.063 ± 0.032
24,A31H,0.057 ± 0.051

row,Variant,abundance fitness
1,A31S,-0.029 ± 0.032
2,A31L,-0.063 ± 0.029
3,A31R,-0.005 ± 0.025
4,A31V,-0.061 ± 0.029
5,A31M,-0.07 ± 0.039
6,E61F,-0.035 ± 0.056
7,E61Q,-0.018 ± 0.045
8,E61R,-0.046 ± 0.028
9,E24L,-0.112 ± 0.031
10,E24S,0.016 ± 0.033
11,E24I,-0.035 ± 0.055
12,E24V,-0.03 ± 0.03
13,E24Q,0.055 ± 0.041
14,E24M,-0.019 ± 0.039
15,V52N,-0.133 ± 0.056
16,V52M,-0.039 ± 0.046
17,V52S,-0.005 ± 0.036
18,V52Q,0.043 ± 0.043
19,I46D,-0.061 ± 0.046
20,I46T,0.032 ± 0.043
21,D72E,0.003 ± 0.033
22,D72C,-0.138 ± 0.046
23,D72P,-0.142 ± 0.039
24,D72I,-0.225 ± 0.064

row,Variant,abundance fitness
1,G16S,-0.032 ± 0.035
2,G16K,0.018 ± 0.042
3,G16C,-0.074 ± 0.041
4,G16E,-0.001 ± 0.034
5,P57Y,-0.133 ± 0.1
6,P57L,-0.112 ± 0.04
7,P57Q,-0.023 ± 0.049
8,P57C,-0.143 ± 0.054
9,P57F,-0.103 ± 0.081
10,P57I,-0.131 ± 0.1
11,P57N,-0.1 ± 0.082
12,V3H,-0.155 ± 0.074
13,V3Q,-0.084 ± 0.043
14,V3K,-0.001 ± 0.05
15,V3P,-0.117 ± 0.043
16,V3E,-0.029 ± 0.035
17,S41T,-0.02 ± 0.038
18,S41N,0.022 ± 0.057
19,S41F,-0.176 ± 0.059
20,S41K,0.058 ± 0.04
21,S41I,-0.092 ± 0.07
22,G45N,-0.01 ± 0.068
23,G45I,-0.158 ± 0.06
24,G45D,-0.011 ± 0.041

row,Variant,abundance fitness
1,G45K,-0.093 ± 0.037
2,G45Y,-0.168 ± 0.051
3,T54L,-0.129 ± 0.048
4,T54N,-0.1 ± 0.075
5,T54W,-0.269 ± 0.051
6,R75S,-0.021 ± 0.035
7,R75F,0.003 ± 0.073
8,R75W,0.007 ± 0.034
9,R75Q,-0.026 ± 0.052
10,R75C,-0.124 ± 0.055
11,R75L,-0.039 ± 0.035
12,T5E,-0.043 ± 0.04
13,T5R,-0.063 ± 0.031
14,T5H,-0.071 ± 0.074
15,Q25A,-0.098 ± 0.03
16,Q25T,-0.133 ± 0.044
17,Q25I,-0.112 ± 0.069
18,K9A,-0.006 ± 0.031
19,K9N,-0.109 ± 0.063
20,K9L,-0.021 ± 0.031
21,K9Q,-0.007 ± 0.038
22,K9E,-0.044 ± 0.034
23,K9C,-0.057 ± 0.041
24,K9V,-0.047 ± 0.028

row,Variant,abundance fitness
1,R49C,-0.091 ± 0.049
2,R49E,-0.159 ± 0.037
3,R49N,-0.155 ± 0.059
4,R49V,-0.052 ± 0.03
5,R49I,-0.141 ± 0.07
6,R49L,-0.19 ± 0.032
7,Q30V,-0.142 ± 0.031
8,Q30W,-0.487 ± 0.038
9,Q30K,-0.171 ± 0.047
10,Q30F,-0.464 ± 0.084
11,Q30P,-0.693 ± 0.05
12,E7I,-0.048 ± 0.064
13,E58M,-0.128 ± 0.051
14,E58L,-0.17 ± 0.038
15,E58F,-0.124 ± 0.086
16,K13Y,0.022 ± 0.06
17,K13A,-0.054 ± 0.03
18,K13D,-0.082 ± 0.043
19,K13L,-0.198 ± 0.032
20,K13T,-0.073 ± 0.039
21,K13F,-0.243 ± 0.061
22,K13E,-0.032 ± 0.035
23,K13Q,-0.017 ± 0.038
24,E6V,-0.051 ± 0.029

row,Variant,abundance fitness
1,E6K,-0.018 ± 0.043
2,E6M,-0.103 ± 0.039
3,E6G,-0.19 ± 0.026
4,Q69D,0.021 ± 0.049
5,Q69V,-0.009 ± 0.031
6,Q69P,-0.156 ± 0.039
7,R28E,-0.079 ± 0.034
8,R28Y,-0.173 ± 0.061
9,R28V,-0.202 ± 0.028
10,R28H,-0.108 ± 0.064
11,R28Q,-0.02 ± 0.04
12,R28A,-0.024 ± 0.029
13,R28T,-0.064 ± 0.039
14,R28L,-0.143 ± 0.033
15,R28D,-0.077 ± 0.053
16,I37Y,-0.799 ± 0.088
17,I37Q,-0.665 ± 0.048
18,I37F,-0.447 ± 0.06
19,I37S,-0.658 ± 0.037
20,I37M,-0.232 ± 0.039
21,I37H,-0.816 ± 0.087
22,I37N,-0.69 ± 0.077
23,G22K,-0.007 ± 0.045
24,G22Y,-0.161 ± 0.063

row,Variant,abundance fitness
1,K64P,-1.14 ± 0.075
2,K64I,-0.275 ± 0.064
3,K64C,-0.453 ± 0.044
4,K64R,-0.095 ± 0.026
5,K64Q,-0.197 ± 0.039
6,S44Y,-0.086 ± 0.067
7,C74Q,-0.002 ± 0.04
8,C74A,0.02 ± 0.029
9,C74V,-0.037 ± 0.03
10,C74S,-0.01 ± 0.032
11,C74I,-0.057 ± 0.071
12,L66C,-0.114 ± 0.051
13,L66S,-0.064 ± 0.033
14,L66Y,-0.078 ± 0.06
15,L67T,-0.666 ± 0.058
16,L67Y,-1.04 ± 0.13
17,L67P,-0.649 ± 0.091
18,L67I,-0.131 ± 0.075
19,L67F,-0.367 ± 0.064
20,C51Y,-0.311 ± 0.065
21,C51N,-0.634 ± 0.091
22,C51P,-0.671 ± 0.066
23,C51M,-0.068 ± 0.043
